According to patent US20240197897A1, “HETEROTANDEM BICYCLIC PEPTIDE COMPLEXES” (Bicycle Tx Limited, priority 2021, published 2024):
Starred links: 1 amine or outer side, 2 acyl side, 3 side chain; linkers in the order of their positions; H or OH if unused. Positions of bridges follow the written chain, without caps; N, C: chain ends. Non-standard residues stand in square brackets, D forms with d. Chains are numbered I, II in the order given. No end group written: not given here. *: point of attachment. TBMT = 2,4,6-tris(bromomethyl)-s-triazine, molecular scaffold, C(c1nc(C[*:2])nc(C[*:3])n1)[*:1]; TATA = O=C(CC[*:1])N1CN(C(=O)CC[*:2])CN(C(=O)CC[*:3])C1; Hyp = O=C(O)[C@@H]1C[C@@H](O)CN1; hArg = N=C(N)NCCCC[C@H](N)C(=O)O; Cba = N[C@@H](CC1CCC1)C(=O)O; Pent4ynoyl = C#CCCC(=O)*

Experiments:
[1] = NK cytotoxicity assay (NK:HT1080-luc co-culture, luciferase readout); assay type: cell-based, human; conditions: NK:HT1080-luc co-culture, 24 hours, four-parameter logistic regression; FIGS. 2-4, 6-8, 10; read-out: EC50 NK cytotoxicity (tumor cell killing)
Experimental: (§1) Heterotandem bicyclic peptide complexes were evaluated for NK functional readouts (cytotoxicity and cytokine secretion) in NK-tumor cell line co-cultures.
(§2) NK cells were isolated using a negative isolation kit (STEMCELL™ Technologies 17955) from the total PBMC population purified from whole blood. NK cell pellet was then resuspended in DMEM medium (Corning™ 10-013-CV) with 10% heat-inactivated fetal bovine serum (FBS; Corning® 35-011-CV), 10 mM HEPES (Gibco™ 15-630-080), and 1% Penicillin Streptomycin (Corning™ 30-002-CI), and 50 IU/mL human IL-2 (Miltenyi Biotec® 130-097-748), at a concentration of 4×10^5 cells/mL. For the NK cell cytotoxicity assays, 50 μL (2×10^4) of cell suspension was plated in the 96-well plate (Grenier® Bio One™ 655090) containing 50 μl (4×10^3) HT1080-luc cells (ATCC® CCL-121-luc2) in DMEM (Gibco™ 11875-093; with L-glutamine) with 10% heat-inactivated fetal bovine serum (FBS; Corning® 35-011-CV), 10 mM HEPES (Gibco™ 15-630-080), and 1% Penicillin Streptomycin (Corning™ 30-002-CI). […] The plates were then incubated for 24 hours at 37° C., 5% CO2. Post-incubation, plates was centrifuged at 250×g for 5 minutes and 100 μl supernatant discarded. Samples were then incubated 10 minutes with 50 μl Bright-Glo™ Luciferase Assay system (Promega™ E2620). Luminescence upon excitation at 570 nm was read using a CLARIOstar® plate-reader with MARS Data Analysis Software™. Data was fit to a four-parameter non-linear regression in GraphPad Prism™ 8.0.2 to generate an EC50 value.

HT1080-luc cells = assay: as above; assay type: cell-based, human; conditions: in comparison to NK:HT1080-luc co-culture without heterotandem complex (NK-TICA)
Experimental: as §1, §2

NK cells = assay: Degranulation assay (CD107a surface expression on NK cells co-cultured with A549); assay type: cell-based, human; conditions: for upregulation of CD107a on NK cell surface: NK cells with A549 cells, post-treatment, FIG. 1
Experimental: Tumor cells can be recognized and killed by CD8+T-cytotoxic and NK cells through the immune secretion of lytic granules that kill target cells. This process involves the fusion of the granule membrane with the cytoplasmic membrane of the immune effector cell, resulting in surface exposure of CD107a (LAMP1). Membrane expression of CD107a constitutes a marker of immune cell activation and cytotoxic degranulation. EphA2/NKp46 or EphA2/CD16a heterotandem bicyclic peptide complexes were evaluated for activation of NK cells using a degranulation assay.
On the day of the experiment, medium was prepared by supplementing RPMI-1640 (Gibco™ 11875-093; with L-glutamine) with 10% heat-inactivated fetal bovine serum (FBS; Corning® 35-011-CV), 10 mM HEPES (Gibco™ 15-630-080), and 1% Penicillin Streptomycin (Corning™ 30-002-CI), herein referred to as working medium. Previously isolated human peripheral blood mononuclear cells (PBMCs), from whole blood, were quick thawed in a water bath and washed once at 500 rpm for 5 minutes in 10 mL of prewarmed working medium. PBMC pellet was then resuspended to concentration of 5×10^6 cells/mL in working medium and rested overnight (12-18 hours) horizontally in a tissue-culture coated flask (T-183; CELLTREAT Scientific 229351). Moreover, Ephrin type-A receptor (EphA2) expressing human lung carcinoma cell line A549 (ATCCR CCL-185; cells were grown and maintained according to manufacturer's recommendation) were detached from the culture vessel using Trypsin/EDTA and washed once at 500 rpm for 5 minutes in 15 mL of prewarmed working medium. Cell pellet was then resuspended in working medium at a concentration of 1×10^5 cells/mL. Subsequently, 100 μL of cell suspension was plated in a flat-bottom tissue-culture coated 96-well plate (Greiner CellStar® 655180) and rested overnight (12-18 hours).
Post-overnight incubation, PBMCs were removed from the flask and washed once at 500 rpm for 5 minutes in 10 mL of prewarmed working medium. […]

[2] = target: EPH receptor A2 (ephrin type-A receptor 2) (human) (UniProt P29317); assay: cell-based or functional assay
NKp46 (human) = NKp46 (human) (UniProt O76036); assay: cell-based or functional assay
[3] = target: FcγRIIIA (also known as CD16a) (human) (UniProt P08637); assay: cell-based or functional assay
FcγRIIIA (also known as CD16a) (human), sequence (P08637 17-254): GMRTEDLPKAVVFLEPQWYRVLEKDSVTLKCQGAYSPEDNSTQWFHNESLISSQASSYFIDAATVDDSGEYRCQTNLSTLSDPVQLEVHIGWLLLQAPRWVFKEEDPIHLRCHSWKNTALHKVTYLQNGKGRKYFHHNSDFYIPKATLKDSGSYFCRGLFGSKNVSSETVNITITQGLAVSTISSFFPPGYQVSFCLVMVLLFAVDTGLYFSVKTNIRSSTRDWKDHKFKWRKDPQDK

EPH receptor A2 (ephrin type-A receptor 2) (human), sequence (P29317 24-976): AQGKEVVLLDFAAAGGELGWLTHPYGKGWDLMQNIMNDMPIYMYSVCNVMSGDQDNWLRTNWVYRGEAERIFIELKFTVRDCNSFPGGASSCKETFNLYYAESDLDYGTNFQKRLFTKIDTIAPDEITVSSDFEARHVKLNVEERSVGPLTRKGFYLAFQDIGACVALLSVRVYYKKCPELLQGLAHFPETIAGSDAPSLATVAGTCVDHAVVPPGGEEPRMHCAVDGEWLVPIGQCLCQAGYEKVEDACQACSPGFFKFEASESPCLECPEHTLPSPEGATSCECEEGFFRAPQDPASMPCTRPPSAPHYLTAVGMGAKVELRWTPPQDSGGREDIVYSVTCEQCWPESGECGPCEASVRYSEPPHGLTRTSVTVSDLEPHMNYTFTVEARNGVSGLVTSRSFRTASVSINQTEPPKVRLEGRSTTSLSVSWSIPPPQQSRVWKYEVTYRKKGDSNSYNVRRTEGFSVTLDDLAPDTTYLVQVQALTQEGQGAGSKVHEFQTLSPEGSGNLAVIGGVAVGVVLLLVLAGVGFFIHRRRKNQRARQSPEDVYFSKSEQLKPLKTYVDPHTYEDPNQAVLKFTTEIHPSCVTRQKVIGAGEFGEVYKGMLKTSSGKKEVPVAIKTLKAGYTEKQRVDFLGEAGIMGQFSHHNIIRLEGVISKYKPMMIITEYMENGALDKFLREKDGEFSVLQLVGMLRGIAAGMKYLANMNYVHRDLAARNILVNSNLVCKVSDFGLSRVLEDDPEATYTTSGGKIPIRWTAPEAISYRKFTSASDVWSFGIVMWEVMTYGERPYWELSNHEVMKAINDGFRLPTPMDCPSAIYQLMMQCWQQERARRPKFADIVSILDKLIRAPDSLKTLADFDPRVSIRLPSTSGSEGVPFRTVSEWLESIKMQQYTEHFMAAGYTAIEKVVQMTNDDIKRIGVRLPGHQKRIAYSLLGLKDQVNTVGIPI
NKp46 (human), sequence (O76036 22-304): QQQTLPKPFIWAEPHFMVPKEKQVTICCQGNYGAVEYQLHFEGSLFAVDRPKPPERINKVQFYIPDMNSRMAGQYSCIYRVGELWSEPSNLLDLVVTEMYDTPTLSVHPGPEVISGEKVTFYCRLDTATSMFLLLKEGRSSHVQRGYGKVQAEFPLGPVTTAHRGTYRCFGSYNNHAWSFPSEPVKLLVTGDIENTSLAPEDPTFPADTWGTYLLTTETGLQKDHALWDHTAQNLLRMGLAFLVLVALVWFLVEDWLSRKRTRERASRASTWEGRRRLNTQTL

**Q.** Which EC50 [1] does the source give for `CC(C)C[C@@H]1NC(=O)[C@H](Cc2ccc(O)cc2)NC(=O)[C@H](CC(=O)O)NC(=O)[C@@H]2CCCN2C(=O)[C@H](CC(C)C)NC(=O)[C@H](Cc2ccc(O)cc2)NC(=O)[C@@H](NC(=O)[C@H](C)N)CSCCC(=O)N2CN3CN(C2)C(=O)CCSC[C@@H](C(=O)N[C@@H](C)C(=O)N[C@H](CCCCNC(=O)CCc2cn(CCOCCOCCOCCN(CCOCCOCCOCCC(=O)N[C@@H](C)C(=O)N[C@@H](CCCCNC(=N)N)C(=O)N[C@@H](CC(=O)O)C(=O)N[C@H]4CSCCC(=O)N5CN6CN(C5)C(=O)CCSC[C@H](NC(=O)[C@H](CC(C)C)NC(=O)[C@@H]5CCCN5C(=O)[C@H](CC(N)=O)NC(=O)[C@H](C(C)C)NC(=O)[C@H](CC(C)C)NC(=O)[C@@H]5C[C@@H](O)CN5C4=O)C(=O)N[C@@H](CC(C)C)C(=O)N[C@@H](Cc4c[nH]cn4)C(=O)N4CCC[C@H]4C(=O)N[C@H](CC(=O)O)C(=O)N[C@@H](Cc4c[nH]c5ccccc45)C(=O)N[C@@H](CCCCNC(=N)N)C(=O)N[C@H](C(N)=O)CSCCC6=O)CCOCCOCCOCCn4cc(CCC(=O)NCCCC[C@@H](NC(=O)[C@H](C)NC(=O)[C@@H]5CSCCC(=O)N6CN7CN(C6)C(=O)CCSC[C@H](NC(=O)[C@H](CC(C)C)NC(=O)[C@H](Cc6ccc(O)cc6)NC(=O)[C@H](CC(=O)O)NC(=O)[C@@H]6CCCN6C(=O)[C@H](CC(C)C)NC(=O)[C@H](Cc6ccc(O)cc6)NC(=O)[C@@H](NC(=O)[C@H](C)N)CSCCC7=O)C(=O)NCC(=O)N[C@@H](CC(=O)O)C(=O)N[C@@H](CCC(=O)O)C(=O)N[C@@H](Cc6ccc(O)cc6)C(=O)N5)C(N)=O)nn4)nn2)C(N)=O)NC(=O)[C@H](Cc2ccc(O)cc2)NC(=O)[C@H](CCC(=O)O)NC(=O)[C@H](CC(=O)O)NC(=O)CNC(=O)[C@H](CSCCC3=O)NC1=O` [BCY15664] here?
**A.** 21 pM

**Q.** What about the “effect on tumor cell killing by NK cells, in words” value (HT1080-luc cells) of the same molecule?
**A.** dose-dependent NK cell response to kill

**Q.** What about the “upregulation of CD107a on NK cell surface” value (NK cells) of the same molecule?
**A.** dose-dependent upregulation of CD107a

**Q.** With “BCY15911: EphA2 specific peptide BCY9594 linked to two CD16a specific peptides (BCY13886) via N-(acid-PEG3)-N-bis(PEG3-azide) linker (peptide 1 A[hArg]DC[Hyp]LVNPLCLHP[dD]W[hArg]C; peptide 2 ACVGLEELGPCSDLCAK(Pent4ynoyl); linker I:4-I:11-I:18 via TATA; linker II:2-II:11-II:15 via TBMT; also: chain 1 N-terminus and chain 2 K(PYA) joined through N-(acid-PEG3)-N-bis(PEG3-azide) linker, two copies of chain 2)” as the molecule, how does the “upregulation of CD107a on NK cell surface” value (NK cells) read?
**A.** dose-dependent upregulation of CD107a

**Q.** And the EC50 (NK cells; NK cells with EphA2 expressing A549 cells, 4 hours, flow cytometry, read-out: EC50 Degranulation Geometric Mean CD107a)?
**A.** 99800 pM

B1: heterotandem bicyclic peptide complex BCY15923 (peptide)
peptide 1: A[hArg]DC[Hyp]LVNPLCLHP[dD]W[hArg]C
peptide 2: ACDLTTHNCQWGICAK(Pent4ynoyl)
modifications: linker I:4-I:11-I:18, II:2-II:9-II:14 via TATA; also: EphA2:NKp46 1:2, two copies of chain 2 on the linker, X5, X17: HyP or HArg, linker at chain B 16 to a chain's N-terminus via N-(acid-PEG3)-N-bis(PEG3-azide) linker
**Q.** Which EC50, NK cytotoxicity assay (HT1080-luc luminescence) [2] does the source give for B1 here?
**A.** 44 pM

**Q.** What about the EC50, NK cytotoxicity assay (HT1080-luc luminescence) (NKp46 (human)) of the same molecule?
**A.** 44 pM

B2: heterotandem bicyclic peptide complex BCY17226 (peptide)
peptide 1: AXDCXLVNPLCLHPDWXC
peptide 2: CYXPDYLCADEYCK
modifications: BCY17224: N-terminal acetyl; Cba (beta-cyclobutylalanine) and dA (D-Ala) within SEQ ID NO: 5; C-terminal Lys(PYA) joined to the linker azide; Ci, Cii, Ciii cyclised on TATA scaffold; BCY9594: HArg (homoarginine) as 2nd residue of the N-terminal extension; HyP, dD and HArg within SEQ ID NO: 2; Ci, Cii, Ciii cyclised on TATA scaffold; N-terminus joined to the linker
**Q.** For B2, which EC50, NK cytotoxicity assay (HT1080-luc luminescence) [2] is on record?
**A.** 6.1 pM

B3: heterotandem bicyclic peptide complex BCY20793 (peptide)
peptide 1: A[hArg]DC[Hyp]LVNPLCLHP[dD]W[hArg]C
peptide 2: Ac-CY[Cba]PDYLC[dA]DEYCK(Pent4ynoyl)
peptide 3: ACRWHFSEPCGAWCAK(Pent4ynoyl)
modifications: linker I:4-I:11-I:18, II:1-II:8-II:13 via TATA; linker III:2-III:10-III:14 via TBMT; also: three peptides joined on N-(PEG3-acid)-N-(PEG3-azide)-N-(PEG3-NH-AcAz) linker (triazole to PYA of chains 2 and 3)
**Q.** What does the source list for B3?
**A.** EC50, NK cytotoxicity assay (HT1080-luc luminescence) (NKp46 (human)): 6.5 pM; EC50, NK cytotoxicity assay (HT1080-luc luminescence) [3]: 6.5 pM

B4: heterotandem bicyclic peptide complex BCY15911 (peptide)
peptide 1: A[hArg]DC[Hyp]LVNPLCLHP[dD]W[hArg]C
peptide 2: ACVGLEELGPCSDLCAK(Pent4ynoyl)
modifications: linker I:4-I:11-I:18 via TATA; linker II:2-II:11-II:15 via TBMT; also: EphA2:CD16a 1:2, two copies of chain 2 on the linker, X5, X17: HyP or HArg, linker at chain B 17 to a chain's N-terminus via N-(acid-PEG3)-N-bis(PEG3-azide) linker
**Q.** Which EC50 Degranulation Geometric Mean CD107a [2] does the source give for B4 here?
**A.** 99800 pM

**Q.** What about the EC50 Degranulation Geometric Mean CD107a [3] of the same molecule?
**A.** 99800 pM
